# Laboratory results: the nanobody polyreactivity screen of Harvey et al. (2022)
# Assay: yeast display, Sf9 membrane polyspecificity reagent, FACS + sequencing; frameworks hold sequencing errors
# In short: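 Galactose induction of a Saccharomyces cerevisiae BJ5465 synthetic nanobody display library ran 36–48 hours. The cells were then stained for 1 hour at 4 °C with 10% biotinylated, detergent-solubilized Sf9 membrane reagent, pulled down on streptavidin microbeads and FACS-sorted into low and high (top ~1%) gates on expression and reagent-binding fluorescence. Labels for polyreactivity follow the gate of origin.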
row,Sequence,polyreactivity (PSR sort gate)
1,QVQLQESGGGQVQAGGSLRLSCAASGTIFLYAFKGWYRQAPGKERELVAAIDVGTTTNYADSVKGRFTISRDNAKNTVYLQMNSLKPEDTAVYYCAANLGYLDDLGYWGQGTQVTVSS,low polyreactivity
2,QVQLVESGRGLVQAGVSLRLSCAASGRIFTYYAMGWYRQAPGKERELVAAITTRGGRTRYADSVKGRFTISRDNAKITVYLQMNSLKPEDTAVYYCARGHSSVGPQYDYWGQGTQVTVSS,high polyreactivity
3,QVQLVESGGGLVQAGGSLRLSCAASGRIFYGNAMGWYRQAPGKESELVASITSSGSTKYADSVKGRFTISRDNAKNTVYLQMYSLKPVDTAVYYCAASSTKRYDTYAGYDYWGQGTQVTVSS,low polyreactivity
4,QVQLVESGGGLVQAGGSLRLSCAASGIIFGVYAMGWYRQAPGKERELVADISSGDSTNYADSVKGRFTISRANAKNTVYLQMNSLKPEDTAVYYCAAEFGRMYWRYGYWGQGTQVTVSS,low polyreactivity
5,QVQLVESGGGLVQAGGSLRLSCAASGSIFDHYAMGWYRQAPGKERELVAAITAICDSTYYADSVKGRFTISRDNAKNTVYLEKNSLKAEDTAVYYCAVTYGGSDGGDYWGQGTQGTVSS,low polyreactivity
6,QVQLVESGGGLVQAGGSLRLSCAASGRTFPGNDMGWYRQAPGKERELVAAISSDDSTYYADSVKGRFTISRDNAKNTVYLQMNSLKPEDTAVYYCNAEYYEGYIGVPGSYWPYEYWGQGTQVTVSS,low polyreactivity
7,QVHLVDSGGGLVQAGGSLRLSCAASGYIFPYNAMGWYRQEPGKERELVATITGTGGSTYYADSVKGRFTISRDNAKITVYLQMNSLKPEDTAVFYCAADLSIRYDHEYGYWGQGTQLTVSS,low polyreactivity
8,QVQLVESGGGLVQAGGSLRLSCAASGSIFQGNAMGWYRQAPGKERELVAAISSRGGTTYYADSVKGRFTISRDNAKNTVYLQMNSLKPEDTAVYYCARDSGYYWYYRYGYWGQGTQVTVSS,high polyreactivity
9,QVQLVESGGGLVQAGGSLRLSCAASGRIFTHNSMGWYRQAPGKERELVAAISYSGVSTYYADSVKGRFTISRDTAKNTVFLQMNSLKPEDTAVYYCNAVWEYSGKSDYWGQGTQVSVSS,low polyreactivity
10,QVQHVESRGGLVQAGGSLRLSCAASGFTFYTNVMGWSRQAPGKERELVAAINSGGSTNYADSVKGRFTISRDNAKNTVYLQMNSLKAEDTAVYYCNKRGTEIGYDYWGQGTQVTVSS,low polyreactivity
11,QVQLVESGGGLVQAGGSLRLSCAASGRTFRYYAMGWYRQAPGKERELVATISSGGSTNYADSVKGRFTISRDNAKNTVYLQMNSLKPEDTAVYYCARYSYRGTNVRYDYWGQGTQVTVSS,high polyreactivity
12,QVQLVESGGGLVQAGGSLRLSCAASGSILGANVMGWYRQAPGKERELVASISKSGGNTFYADSVKGRFTISRDNAKNTVYLQLNRLKPEDTAVYYCAKRAHRYSYRYTYDYWGQGTQVTVSS,low polyreactivity
13,QVQLVESGGGLVQAGGSLRLSCAASGFTFIYYAMGWYRQAPGTERELVAAISTSGDSTYYADSVKGRFTISRDNAKNSVYLQMNSLKPEDTAVYYCNADWYPYLHEYDYWGQGTQVTVSS,low polyreactivity
14,QVQLVESGGGLVQAGGSLRLSCAASGHIFPTNAMGWYRQAPGKERELVAVISESVGSTYYADSVKGRFTISRDNAKNTVYLQMNSLKPEDTAVYYCAVRSRTPRAYYYWGQGTQVTVSS,low polyreactivity
15,QVQLVESGGGLVQAGGSLRLSCAASGRIFARYAMGWYRQAPGKERELVAAISFRGGSTYYADSVKGRFTISRDNAKNTVYLQMNSLKPEDTAVYYCAARFGGWDRGLDYWGQGTQVTVSS,high polyreactivity
16,QVQLVESGGGLVQAGGSLRLSCAASGSIFSPNAMGWYRQAPGKERELVATISFSGGRTYYADSVKGRFTISRDNAKNTVYLQMNSLKPEDTAVYYCAKAYYYTDMDYWGQGTQVTVSS,low polyreactivity
17,QVQLVESGGGLVQAGGSLRLSCAASGRTFSYYAMGWYIQAPGKERELVAAINSSGGRTYYADSVKGRFTISRDNAKNTVYLQMNSLKPEDTAVYYCAARSYSTSSHHGYWGQGTQVTVSS,high polyreactivity
18,QVQLVESGGGLVQAGGSLRLSCAASGIIFYLYAMGWYRQAPGKERELVAAISRRGVSTYYADSVKGRFTISRDNAKNTVYLQMNSLKPEDTAVYYCAAAGFGYTGEEYWGQGTQVTVSS,high polyreactivity
19,QVQHVESAGGLVQAGGSLRLICAASGSIFFHYGMGWYRQAPGKERELVADIRSGGSTYYADSVKGRFTSSRDNAKNTVYLQMNSLKPDDSAVYYCAAVLALFGVTHVDYWGQGTQVSVSS,low polyreactivity
20,QVQLVESGGGLVQAGGSLRLSCAASGITFWYYAMGWYRQAPGKERELVAAITRSGRTNYADSVKGRFTISRDNAKNTVYLQMNSLKPEDTAVYYCAVYLYSFSPRYYYWGQGTQVTVSS,low polyreactivity
21,QVQLVESGGGLVQAGGSLRLSCAGSGSSFAWNDMGWYRHAPGIERALVAAISTSDGSTYYADSVKGRFTISRDNAKNTVYLQMNSLNPEDTAVYYCAADVTRVFYGLYTGEYDYWGLGTQVTVSS,low polyreactivity
22,QVQLVESGGGLVQAGGSLRLSCAASGFTFSPNARGWYRQAPGKERELVAAISKGGSSTYYADSVKGRFTISRDNAKNTVYLQMNSLKPEDTAVYYCARPSTHKGYDYWGQGTQVTVSS,high polyreactivity
23,QVQLVESGGGLVQAGGSLRLSCAASGRTFGQNAMGWYRPAPGKERELVAAISRGGSTYYADSVKGRFTISRDNAKNTVYLQMNSLKPEDTAVYYCAAAKKSGVYLRLNYWGQGTQVTVSS,high polyreactivity
24,QVQLVESGGGLVQAGGSLRLSCAASGSTFYYNAMGGYRQAPGKEWELVATITSAGRTNYADSVKGRFTISRVNAKNTDYLQMNSLKPEDTAVYYCNARYRLSRYNYWGQGTQVTVSS,low polyreactivity
25,QVQLVESGGGLVQAGGSLRLSCAASGGTRFTNAMGWYRQAPGKEREMVAAISWRGGRTYYADSVKGRFTISRDNAKNTVYLQMNSQKPEDTAVYYCAAASAAGYDYWGQGTQVTVSS,low polyreactivity
26,QVQLVESGGGLVQAGGSLRLSCAASGYTFARNAMGWYIQAPGKERELVAAISSSGGRTYYADSVKGRFTISRDNAKNTVYLQMNSLKPEDTAVYYCNTGYYRTGSYDYWGQGTQVTVSS,high polyreactivity
27,QVQLVESGGGLVQAGGSLRLSCAASGSIFVRNAMGWYRQAPGKEREFVAIRFSGATTYYADSVKGRFTISRDNAKNTVYLQMNSLKPEDTAVYYCAAVARTYGRTSYYWGQGTQVTVSS,high polyreactivity
28,QVQLVESGGGLVQAGGSLRLSCAASGRTFPRNGMGWYRQAPGKERELVAAISWSGGRTYYADSVKGRFTISRDNAKNTVYLQMNSLKPEDTAVYYCNALYFRKGGYWGQGTQVTVSS,high polyreactivity
29,QVQLVESGGGLVQAGGSLRLSCAASGRTIIRNTMGWYRQAPGKERELVARISYGGGRTYYADSVKGRFTISRDNAKNTVYLQMNSLKPEDTAVYYCAKVTPPFWGGYWYNYWGQGTQVTVSS,high polyreactivity
30,QFQIVDSVGGLVQAGGSLRLSCAASGRTFSYYSLGWYREATGKERELVASIRKSGASTYYADSVKGRFTISRDNAKNTVYLQMNSLKPEDTAVYYCNTAGWSFYSGRYDYWGQGTQVTVSS,high polyreactivity
